The text below walks through data of patent US20060018907A1 (published 2006).

In test [1] the target is human lymphotoxin (TNFβ) (human) (UniProt P01374). Briefly: cell-based or functional assay.
Test [2] concerns the target human tumor necrosis factor-α (TNFα) (human, UniProt P01375 77-233). Briefly: cell-based or functional assay.

human tumor necrosis factor-α (TNFα), sequence (P01375 77-233): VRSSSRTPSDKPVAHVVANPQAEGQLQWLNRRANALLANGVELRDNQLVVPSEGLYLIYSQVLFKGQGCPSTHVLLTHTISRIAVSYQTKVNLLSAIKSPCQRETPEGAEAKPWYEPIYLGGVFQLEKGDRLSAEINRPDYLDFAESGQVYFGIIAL
human lymphotoxin (TNFβ) (human), sequence (P01374 35-205 limits assumed): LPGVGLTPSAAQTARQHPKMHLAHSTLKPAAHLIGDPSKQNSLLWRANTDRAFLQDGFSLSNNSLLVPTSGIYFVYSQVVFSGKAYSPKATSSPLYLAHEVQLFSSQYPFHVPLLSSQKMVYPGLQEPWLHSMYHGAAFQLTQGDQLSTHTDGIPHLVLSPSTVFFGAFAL

In test [1], “p55-sf2 (p55 TNF receptor / IgG1 heavy chain single fusion with truncated light chain JCK) (from UniProt P19438) (Fc fusion)” yielded an amount needed for the same inhibition of TNFβ cytotoxicity, against p75P-sf2 (fold against p75P-sf2) of 3.

B1: p75-sf2 (complete extracellular domain of p75 fused to the IgG1 heavy chain, with truncated light chain) (Fc fusion)
chain: QLPAQVAFTPYAPEPGSTCRLREYYDQTAQMCCSKCSPGQHAKVFCTKTSDTVCDSCEDSTYTQLWNWVPECLSCGSRCSSDQVETQACTREQNRICTCRPGWYCALSKQEGCRLCAPLRKCRPGFGVARPGTETSDVVCKPCAPGTFSNTTSSTDICRPHQICNVVAIPGNASMDAVCTSTSPTRSMAPGAVHLPQPVSTRSQHTQPTPEPSTAPSTSFLLPMGPSPPAEGSTGDGTLVTVSS
As to B1, the “amount needed for 50% inhibition of TNFα cytotoxicity, against p55-sf2” value in test [2] was about 2 fold against p55-sf2.

B2: chimeric mouse/human IgG1 anti-platelet mAb (7E3) (antibody, INN chains, looked up, V domains shown)
VH: EVQLQQSGTVLARPGASVKMSCEASGYTFTNYWMHWVKQRPGQGLEWIGAIYPGNSDTSYIQKFKGKAKLTAVTSTTSVYMELSSLTNEDSAVYYCTLYDGYYVFAYWGQGTLVTVSA
VL: EIVLTQSPVTLSVTPGDSVSLSCRASRDISNNLHWFQQTSHESPRLLIKYASQSMSGIPSRFSGSGSGTDFTLSINSVETEDFGMYFCQQTNSWPYTFGGGTKLEIK
modifications: IgG1
In test [2], B2 displayed an IL-6 secreted by FS-4 fibroblasts (ng/ml); 4 µg/ml antibody, 0.3 ng/ml TNF (no antibody: 1.36) of 1.6 ng/ml IL-6; an IL-6 secreted by FS-4 fibroblasts (ng/ml); 4 µg/ml antibody, 1.5 ng/ml TNF (no antibody: 2.00) of 1.96 ng/ml IL-6; an IL-6 secreted by FS-4 fibroblasts (ng/ml); 4 µg/ml antibody, 7.5 ng/ml TNF (no antibody: 2.56) of 2.16 ng/ml IL-6.
